Measurements from article PMC5779224 (2017).

Columns and labels:
AnkB ΔZZUD = target: T1, AnkB ΔZZUD (human, UniProt Q01484-2 1-1872); experiment: ITC
T1 chain: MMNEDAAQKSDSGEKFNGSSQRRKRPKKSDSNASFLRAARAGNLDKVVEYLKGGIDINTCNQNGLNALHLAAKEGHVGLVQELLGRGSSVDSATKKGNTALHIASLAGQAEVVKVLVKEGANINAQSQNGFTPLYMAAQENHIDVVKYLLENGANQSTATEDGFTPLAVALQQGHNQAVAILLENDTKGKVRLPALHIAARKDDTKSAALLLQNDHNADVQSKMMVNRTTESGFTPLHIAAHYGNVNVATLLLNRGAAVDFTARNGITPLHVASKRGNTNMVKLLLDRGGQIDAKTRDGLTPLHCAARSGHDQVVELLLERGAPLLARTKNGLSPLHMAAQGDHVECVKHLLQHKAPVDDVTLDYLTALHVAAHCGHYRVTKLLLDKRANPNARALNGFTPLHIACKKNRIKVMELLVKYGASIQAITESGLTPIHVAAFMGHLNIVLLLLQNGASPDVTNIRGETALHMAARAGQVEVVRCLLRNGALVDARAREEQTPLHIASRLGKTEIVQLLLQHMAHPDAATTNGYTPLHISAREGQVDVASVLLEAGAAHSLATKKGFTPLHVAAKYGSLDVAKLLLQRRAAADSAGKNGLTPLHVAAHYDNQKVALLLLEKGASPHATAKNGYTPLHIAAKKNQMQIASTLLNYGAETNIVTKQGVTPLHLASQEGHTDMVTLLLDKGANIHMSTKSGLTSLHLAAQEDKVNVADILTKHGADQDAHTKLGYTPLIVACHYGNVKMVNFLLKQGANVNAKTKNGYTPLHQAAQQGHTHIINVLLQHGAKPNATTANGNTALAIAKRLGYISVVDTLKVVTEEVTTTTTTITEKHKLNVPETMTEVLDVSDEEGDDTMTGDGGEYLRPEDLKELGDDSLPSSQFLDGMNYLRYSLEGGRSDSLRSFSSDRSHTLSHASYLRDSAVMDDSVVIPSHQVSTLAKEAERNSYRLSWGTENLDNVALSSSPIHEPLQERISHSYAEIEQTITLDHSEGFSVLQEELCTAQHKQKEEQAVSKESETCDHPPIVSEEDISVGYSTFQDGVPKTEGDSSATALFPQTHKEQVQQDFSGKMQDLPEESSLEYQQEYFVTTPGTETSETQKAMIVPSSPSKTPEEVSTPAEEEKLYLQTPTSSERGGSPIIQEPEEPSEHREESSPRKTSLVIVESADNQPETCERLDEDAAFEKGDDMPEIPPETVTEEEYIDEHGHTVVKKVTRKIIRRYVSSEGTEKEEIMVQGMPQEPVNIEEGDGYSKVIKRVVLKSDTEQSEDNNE

[1] = target: T2, AnkB 28–847 (MBD + partial AI-c) (human, UniProt Q01484-2 28-847); experiment: ITC
T2 chain: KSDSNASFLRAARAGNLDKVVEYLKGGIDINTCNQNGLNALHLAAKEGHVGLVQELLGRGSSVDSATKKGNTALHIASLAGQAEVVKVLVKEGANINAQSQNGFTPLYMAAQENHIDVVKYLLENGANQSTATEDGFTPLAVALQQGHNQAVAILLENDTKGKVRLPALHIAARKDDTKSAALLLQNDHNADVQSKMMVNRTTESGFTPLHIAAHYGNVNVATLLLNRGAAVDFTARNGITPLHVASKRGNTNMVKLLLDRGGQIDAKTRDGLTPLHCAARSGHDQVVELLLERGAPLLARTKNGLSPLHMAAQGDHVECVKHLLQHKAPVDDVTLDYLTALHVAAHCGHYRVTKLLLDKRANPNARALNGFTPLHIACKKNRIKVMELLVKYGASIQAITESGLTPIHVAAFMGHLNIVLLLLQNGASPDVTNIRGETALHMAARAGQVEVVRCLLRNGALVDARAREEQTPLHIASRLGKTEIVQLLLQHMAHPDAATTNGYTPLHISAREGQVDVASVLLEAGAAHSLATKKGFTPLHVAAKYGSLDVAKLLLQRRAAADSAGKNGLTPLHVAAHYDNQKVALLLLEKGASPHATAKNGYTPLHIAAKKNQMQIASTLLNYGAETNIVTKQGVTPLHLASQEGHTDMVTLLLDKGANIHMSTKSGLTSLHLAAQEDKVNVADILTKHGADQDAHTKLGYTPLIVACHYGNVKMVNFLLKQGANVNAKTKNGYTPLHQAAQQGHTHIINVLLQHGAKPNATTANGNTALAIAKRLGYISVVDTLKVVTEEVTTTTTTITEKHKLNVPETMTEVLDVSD

[2] = target: T3, AnkG 38–855 (AnkG MBD-AI-c protein; MBD + partial AI-c) (rat, UniProt O70511-1 38-855); experiment: ITC; reported in Wang et al 2014
T3 chain: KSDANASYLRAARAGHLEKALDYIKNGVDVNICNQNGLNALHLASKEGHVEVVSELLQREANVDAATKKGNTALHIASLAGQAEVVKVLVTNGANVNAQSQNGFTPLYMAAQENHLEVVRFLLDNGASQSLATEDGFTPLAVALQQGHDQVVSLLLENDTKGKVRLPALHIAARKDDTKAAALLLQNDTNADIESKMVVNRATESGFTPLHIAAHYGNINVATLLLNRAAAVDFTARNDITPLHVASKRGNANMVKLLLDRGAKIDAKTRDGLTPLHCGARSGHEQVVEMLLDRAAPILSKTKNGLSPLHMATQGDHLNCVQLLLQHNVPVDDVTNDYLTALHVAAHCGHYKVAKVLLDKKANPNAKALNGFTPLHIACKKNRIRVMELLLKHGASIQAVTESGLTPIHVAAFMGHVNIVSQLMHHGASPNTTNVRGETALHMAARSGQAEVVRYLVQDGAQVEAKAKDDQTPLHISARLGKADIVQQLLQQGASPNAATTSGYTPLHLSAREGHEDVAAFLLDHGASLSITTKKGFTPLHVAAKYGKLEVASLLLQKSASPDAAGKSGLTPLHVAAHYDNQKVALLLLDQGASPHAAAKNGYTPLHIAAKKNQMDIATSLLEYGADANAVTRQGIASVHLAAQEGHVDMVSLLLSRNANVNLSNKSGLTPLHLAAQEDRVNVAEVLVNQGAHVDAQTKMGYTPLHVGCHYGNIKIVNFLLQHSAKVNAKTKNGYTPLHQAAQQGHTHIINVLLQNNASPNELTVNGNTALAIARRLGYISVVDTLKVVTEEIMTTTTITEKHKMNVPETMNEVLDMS

B1: NF186 (aa 1187–1214) (domain or fragment)
chain: SDDSLVDYGEGGEGQFNEDGSFIGQYTV
B1 gave a Kd (AnkB ΔZZUD) of 14000 nM, a Kd [1] of 490 nM and a Kd [2] of 210 nM.
